{"source": "paper PMC8892257", "biological_target": "Orai1-GFP (UniProt Q96D31)", "sequence (Q96D31 whole entry)": "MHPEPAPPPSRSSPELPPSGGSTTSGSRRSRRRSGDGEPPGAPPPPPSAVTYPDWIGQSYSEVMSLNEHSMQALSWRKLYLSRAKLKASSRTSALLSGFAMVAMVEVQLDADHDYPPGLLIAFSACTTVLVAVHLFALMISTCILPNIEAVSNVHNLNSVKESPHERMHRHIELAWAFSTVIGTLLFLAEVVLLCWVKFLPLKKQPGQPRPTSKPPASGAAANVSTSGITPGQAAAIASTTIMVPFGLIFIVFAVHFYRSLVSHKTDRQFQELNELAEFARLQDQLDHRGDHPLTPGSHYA", "test": "FRET or BRET", "data": [{"substance": "STIM1A-mCherry (natural protein)", "values": [{"measurement": "FRET efficiency (E-FRET)", "value": 0.26}]}]}
